Results reported in patent US20190127438A1 (AFFIRIS, published 2019).

Experiments:
[1] = biological target: T1, human IgE (NBS-00911-0-100) (human, UniProt P01854-1 1-428); test: capture ELISA: adsorber on a capturing antibody, 1 µg/ml IgE, anti IgE-HRPO
T1 construct: Bought reagent; also called soluble IgE
Protocol: Protease resistant A43-FceRIa adsorber has similar affinity, avidity and specificity to IgE when compared to wild type FceRIa or prior art single chain antibody scFv12 (WO 2012/140214 A1) when comparing IgE binding by capture ELISA. Plates were coated with capturing antibody, after blocking HEK cell-purified recombinant protein derived from ScFv12 and FceRIa transfected cells, coated protein was incubated for 1 hour at RT. 1 μg/ml IgE (NBS-00911-0-100), trapped for 1 h/RT and detected for IgE binding using 1 μg/ml anti IgE-HRPO mAB (Novus Biologicals NBP1-74934) for 1 hour at RT.

[2] = biological target: T1, human IgE (NBS-00911-0-100); test: SPR (Biacore 2000, 25 °C), adsorber captured by anti-Tag mAB, IgE 0.5-64 nM as analyte, 1:1 model
Protocol: The surface of a Streptavidine (SA) sensor chip (GE Healthcare Biacore, Cat. Nr. BR-1000-32) was prepared by three injections with 20 μl of 50 mM NaOH following a 200 μl injection of the biotinylated anti-Tag-mAB (Abcam ab10241) diluted to 2 μg/ml in HBS-EP (0.01 M HEPES, 0.15 M NaCl, 3 mM EDTA, 0.005% (v/v) surfactant P20 (pH 7.4) (GE Healthcare Cat. Nr. BR-1001-88) resulting in an immobilization level of ˜2500 RU for capturing on flow cell 4. Free SA-binding sites were saturated by two consecutive 100 μl injections of 1 mM D-Biotin (Sigma #47868). Flow cell 3 was saturated with free D-Biotin and served as reference cell. The capturing level of FceRIa variants and of the ScFv12 required to obtain a maximal response of 100 RU of IgE binding was calculated to be 75 RU and 80 RU, respectively. Therefore FceRIa, A43-FceRIa and scFv12 were diluted in HBS-EP and injected into flow cell 3 and 4 (30 μl/min) until the immobilization level of 90 RU was reached. After a stabilization time of 10 min with injection of running buffer, the final capturing level of 75 and 80 RU respectively were obtained. Finally the individual interactions of FceRIa, A43-FceRIa and scFv12 with IgE (NBS-00911-0-100) diluted in HBS-EP running buffer at 2-fold increasing concentrations (starting concentration, 0.5 nM; maximum concentration, 64 nM) were assessed with an IgE-association phase of 3 min at a flow rate of 30 μl/min. The dissociation phase was investigated by injection of HBS-EP for 30 min at a flow rate of 30 μl/min. The sensor chip surface was regenerated by injecting 15 μl of 10 mM Glycine-HCl pH 1.8 at the same. The dissociation constant (KD-Value), on-rate (ka) and off-rate (kd) were calculated with BIAevaluation 4.1 (GE Healthcare Biacore) using a 1:1 interaction model. All measurements were performed on a Biacore 2000 device at 25° C.

T1 sequence (P01854 other isoform, or with tags, fused parts or gaps): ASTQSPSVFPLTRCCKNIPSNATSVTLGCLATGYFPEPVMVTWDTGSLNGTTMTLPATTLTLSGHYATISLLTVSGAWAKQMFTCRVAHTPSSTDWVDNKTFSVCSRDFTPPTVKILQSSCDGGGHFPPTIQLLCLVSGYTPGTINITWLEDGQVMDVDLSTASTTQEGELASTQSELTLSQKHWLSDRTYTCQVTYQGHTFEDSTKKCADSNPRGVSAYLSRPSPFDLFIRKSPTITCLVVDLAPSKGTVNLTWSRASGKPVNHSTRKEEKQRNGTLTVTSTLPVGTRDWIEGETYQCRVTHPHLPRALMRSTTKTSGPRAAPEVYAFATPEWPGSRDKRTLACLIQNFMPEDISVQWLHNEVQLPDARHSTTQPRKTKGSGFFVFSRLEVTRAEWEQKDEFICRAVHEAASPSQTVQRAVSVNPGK

B1: protease resistant A43-FceRIa (K43 to A43 variant of recombinant human FceRIa) (receptor)
chain (part 1 of 2): PDGVLAVPQKPKVSLNPPWNRIFAGENVTLTCNGNNFFEVSSTKWFHNGSLSEETNSSLNIVNAKFEDSGEYKCQHQQVNESEPVYLEVFSDWLLLQASAEVVMEGQPLFLRCHGWRNWDVYKVIYYKDGEALKYWYENHNISITNATVEDSGTYYCTGKVWQLDYESEPLNITVIKAPREKYWLQ
chain (part 2 of 2): HHHHHH
notes: also called A43 mutant; protease-resistant variant A43-FceRIa; not shown: spacer
Work on B1 yielded an EC50 [1] of 0.0344 µg/mL, a Kd [2] of 0.379 nM and a koff [2] of 0.000492 s⁻¹. It also gave a kon [2] of 1.3e+06 M⁻¹ s⁻¹.

B2: recombinant wild type FceRIa (extracellular region of the alpha chain of the human high-affinity IgE receptor, spacer, 6His) (receptor)
chain: PDGVLAVPQKPKVSLNPPWNRIFKGENVTLTCNGNNFFEVSSTKWFHNGSLSEETNSSLNIVNAKFEDSGEYKCQHQQVNESEPVYLEVFSDWLLLQASAEVVMEGQPLFLRCHGWRNWDVYKVIYYKDGEALKYWYENHNISITNATVEDSGTYYCTGKVWQLDYESEPLNITVIKAPREKYWLQHHHHHH
notes: Peptide K (VPQKPK...) begins at V26, so the secreted protein may begin at residue 26; also called WT-FceRIa; wt-FceRIa; not shown: spacer between FceRIa and 6His
With B2 the EC50 [1] was 0.0245 µg/mL, the Kd [2] was 0.473 nM and the koff [2] was 0.00052 s⁻¹. The kon [2] was 1.1e+06 M⁻¹ s⁻¹.
